In the supplement of paper PMC7877785:
± gives the uncertainty stated by the source.

Assay: self-splicing fitness, log relative to wild type (ln ratio); higher = more splicing; Tetrahymena group I intron in knt gene, E. coli kanamycin selection, DiMSum; sequences stand for … in CUCUCU…GGAGGGAAAAGUUAUCAGGCAUGCACCUGGUAGCUAGUCUUUAAACCAAUAGAUUGCAUCGGUUUAAAAGGCAAGACCGUCAAAUUGCGGGAAAGGGGUCAACAGCCGUUCAGUACCAAGUCUCAGGGGAAACUUUGAGAUGGCCUUGCAAAGGGUAUGGUAAUAAGCUGACGGACAUGGUCCUAACCACGCAGCCAAGUCCUAAGUCAACAGAUCUUCUGUUGAUAUGGAUGCAGUUCACAGACUAAAUGUCGGUCGGGGAAGAUGUAUUCUUCUCAUAAGAUAUAGUCGGACCUCUCCUUAAUGGGAGCUAGCGGAUGAAGUGAUGCAACACUGGAGCCGCUGGGAACUAAUUUGUAUGCGAAAGUAUAUUGAUUAGUUUUGGAGUACUCGUGGUCG
How it was run: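 Pooled colonies went to amplicon sequencing on an Illumina HiSeq 2500 after six replicate transformations. The plates were LB agar with 100 μg/mL carbenicillin, 50 μM IPTG and 0.2% rhamnose, with or without 25 μg/mL kanamycin, incubated overnight at 37°C or 30°C. The E. coli BL21(DE3) library had all eight P1ex-region intron nucleotides randomised, the intron placed in the knt kanamycin-resistance gene on pET-22b(+). DiMSum fitness is the error-weighted combination of replicate fold changes, kanamycin against none, normalised to wild type.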

Sequence	self-splicing fitness (ln) (30 °C)	self-splicing fitness (ln) (37 °C)
AUAUAGCAAUAUUACGCAGC	-3.62 ± 0.43	-1.92 ± 0.27
CUAAAGCAAUAUUACGGGAC	-2.11 ± 0.13	-0.677 ± 0.13
ACCCAGCAAUAUUACGGUAA	-1.26 ± 0.09	-0.477 ± 0.087
GCAAAGCAAUAUUACGGUUU	-1.26 ± 0.063	-0.4 ± 0.082
CUACAGCAAUAUUACGUCGU	-3.3 ± 0.35	-2.83 ± 0.25
GUGUAGCAAUAUUACGCGCG	-2.48 ± 0.36	-2.62 ± 0.38
CUCAAGCAAUAUUACGCGUU	-4.07 ± 0.46	-2.92 ± 0.3
CGCAAGCAAUAUUACGCUGU	-3.81 ± 0.24	-1.48 ± 0.16
ACUUAGCAAUAUUACGUAGG	-1.25 ± 0.079	-1.12 ± 0.11
GUUAAGCAAUAUUACGAGCU	-1.76 ± 0.13	-1.08 ± 0.15
GGGAAGCAAUAUUACGUAGG	-3.64 ± 0.32	-0.93 ± 0.11
CCAGAGCAAUAUUACGUCGA	-3.92 ± 0.18	-3.12 ± 0.17
AGUUAGCAAUAUUACGUUAU	-3.25 ± 0.17	-2.08 ± 0.17
ACAAAGCAAUAUUACGUCGA	-1.98 ± 0.092	-1.02 ± 0.094
UCCCAGCAAUAUUACGGUGA	-1.57 ± 0.11	-1.02 ± 0.11
GUUGAGCAAUAUUACGUAAU	-1.76 ± 0.093	-0.913 ± 0.12
CAGGAGCAAUAUUACGUAAC	-3.33 ± 0.26	-2.74 ± 0.32
AAAUAGCAAUAUUACGUCAU	-2.45 ± 0.08	-1.51 ± 0.11
GAGGAGCAAUAUUACGUAAC	-1.59 ± 0.19	-2.72 ± 0.41
CAGCAGCAAUAUUACGGAAA	-3.12 ± 0.14	-2.19 ± 0.16
GUAAAGCAAUAUUACGUGCC	-3.19 ± 0.16	-1.93 ± 0.17
AACGAGCAAUAUUACGCGUU	-4.34 ± 0.2	-2.42 ± 0.14
CUCAAGCAAUAUUACGGGCC	-4.15 ± 0.35	-2.78 ± 0.36
UGAUAGCAAUAUUACGACUC	-3.07 ± 0.21	-1.46 ± 0.18
UCAUAGCAAUAUUACGAUCC	–	-1.7 ± 0.41

Sequence	self-splicing fitness (ln) (30 °C)	self-splicing fitness (ln) (37 °C)
CCAUAGCAAUAUUACGUCGU	-2.4 ± 0.15	-2.82 ± 0.23
CGCAAGCAAUAUUACGGCCC	-1.17 ± 0.24	-1.23 ± 0.26
UCUCAGCAAUAUUACGGGCC	-2.05 ± 0.2	-1.37 ± 0.27
AGCGAGCAAUAUUACGUCUG	-2.03 ± 0.11	-1.8 ± 0.14
UUCGAGCAAUAUUACGUUUG	-2.94 ± 0.14	-2.99 ± 0.2
UUGGAGCAAUAUUACGAUUG	–	-2.34 ± 0.41
CGGGAGCAAUAUUACGAUCA	–	-1.75 ± 0.43
CCCUAGCAAUAUUACGGACC	-0.914 ± 0.3	–
GAUUAGCAAUAUUACGGAUG	-2.07 ± 0.16	-0.375 ± 0.15
ACGGAGCAAUAUUACGGGCG	-2.12 ± 0.19	-0.224 ± 0.19
CCCUAGCAAUAUUACGGAGG	-2.87 ± 0.15	-2.77 ± 0.26
AGCGAGCAAUAUUACGGCGC	-2.72 ± 0.22	-1.98 ± 0.2
GAUUAGCAAUAUUACGUUCG	-1.94 ± 0.16	-1.44 ± 0.13
GGCAAGCAAUAUUACGCGAU	-2.6 ± 0.25	-2.37 ± 0.24
AUAUAGCAAUAUUACGCACU	-0.015 ± 0.13	-0.204 ± 0.16
AGUAAGCAAUAUUACGGAAA	-3.26 ± 0.41	-0.269 ± 0.23
CUCCAGCAAUAUUACGUGUG	-2.17 ± 0.069	-1.5 ± 0.08
AGAUAGCAAUAUUACGAACC	0.553 ± 0.29	-0.637 ± 0.27
AGCUAGCAAUAUUACGUGUU	-1.86 ± 0.14	-2.11 ± 0.14
UCGCAGCAAUAUUACGAGGU	-3.14 ± 0.25	-2.85 ± 0.19
AGGAAGCAAUAUUACGGGUA	-2 ± 0.24	-1.6 ± 0.21
UCCAAGCAAUAUUACGUUUA	-3.15 ± 0.12	-1.98 ± 0.11
CUGAAGCAAUAUUACGAUAA	-2.51 ± 0.25	-2.06 ± 0.29
AGUCAGCAAUAUUACGAUUC	-3.27 ± 0.14	-1.05 ± 0.1
UUAUAGCAAUAUUACGGGAU	-2.78 ± 0.39	-3.5 ± 0.42

Sequence	self-splicing fitness (ln) (30 °C)	self-splicing fitness (ln) (37 °C)
UCUAAGCAAUAUUACGGUGU	-1.75 ± 0.083	-1.34 ± 0.093
GGAGAGCAAUAUUACGUUGU	-4.01 ± 0.19	-3.77 ± 0.24
GUGAAGCAAUAUUACGUAUG	-2.38 ± 0.085	-1.29 ± 0.088
GGAAAGCAAUAUUACGGCUC	-0.254 ± 0.13	0.018 ± 0.16
GCGAAGCAAUAUUACGAAUC	-2.47 ± 0.11	-1.11 ± 0.12
UGUAAGCAAUAUUACGAGAU	-3.71 ± 0.3	-3.14 ± 0.37
AACGAGCAAUAUUACGGAGG	-2.79 ± 0.19	-2.38 ± 0.27
UCUUAGCAAUAUUACGGGGU	-3.44 ± 0.2	-2.39 ± 0.28
UUAUAGCAAUAUUACGCGCU	-2.25 ± 0.14	-1.55 ± 0.13
AGACAGCAAUAUUACGAGAA	-2.15 ± 0.37	-2.43 ± 0.31
AUGAAGCAAUAUUACGAUGG	-3.18 ± 0.18	-1.92 ± 0.16
UGGAAGCAAUAUUACGUACA	-0.926 ± 0.1	0.227 ± 0.11
ACGAAGCAAUAUUACGAAGA	-3.07 ± 0.25	-3.2 ± 0.37
CAGAAGCAAUAUUACGGACU	-2.88 ± 0.27	-0.24 ± 0.31
CGGCAGCAAUAUUACGUAAA	-2.71 ± 0.12	-1.84 ± 0.12
CACAAGCAAUAUUACGGCGA	-1.3 ± 0.092	-0.406 ± 0.087
GCUCAGCAAUAUUACGUACC	0.00766 ± 0.067	0.487 ± 0.1
GAACAGCAAUAUUACGCCUU	-0.755 ± 0.13	0.356 ± 0.14
CCGGAGCAAUAUUACGGGGU	-3.59 ± 0.2	-2.93 ± 0.26
GCAUAGCAAUAUUACGUCGC	-1.2 ± 0.28	-2.32 ± 0.45
UCUAAGCAAUAUUACGCCAA	-1.47 ± 0.32	-0.954 ± 0.23
UAUAAGCAAUAUUACGUGGA	-2.08 ± 0.19	-1.71 ± 0.19
CGGCAGCAAUAUUACGCCGU	-3.6 ± 0.29	-2.29 ± 0.19
AAUAAGCAAUAUUACGGGCU	-1.54 ± 0.14	-1.6 ± 0.14
AGCAAGCAAUAUUACGUUCU	-0.601 ± 0.084	-0.279 ± 0.087

Sequence	self-splicing fitness (ln) (30 °C)	self-splicing fitness (ln) (37 °C)
ACGCAGCAAUAUUACGUGAC	-3.45 ± 0.25	-2.3 ± 0.21
GUGCAGCAAUAUUACGGUAC	-2.67 ± 0.15	-2.07 ± 0.17
AAAAAGCAAUAUUACGGGUG	-1.69 ± 0.062	-0.982 ± 0.077
GGCGAGCAAUAUUACGCUCA	-1.02 ± 0.11	0.00865 ± 0.12
AUGUAGCAAUAUUACGGGCU	-2.18 ± 0.16	-0.877 ± 0.16
GUGCAGCAAUAUUACGUGGA	-3.24 ± 0.28	-2.24 ± 0.19
ACACAGCAAUAUUACGACUA	-1.22 ± 0.091	-0.346 ± 0.084
UGUGAGCAAUAUUACGUGGA	-2.53 ± 0.15	-3.05 ± 0.22
CCAAAGCAAUAUUACGCUAU	-3.7 ± 0.19	-2.39 ± 0.23
ACUCAGCAAUAUUACGCGCG	-1.21 ± 0.12	-0.47 ± 0.11
ACAGAGCAAUAUUACGCUUA	-2.01 ± 0.22	-1.25 ± 0.16
CAAAAGCAAUAUUACGUUUC	-3.1 ± 0.28	-2.76 ± 0.2
UCCCAGCAAUAUUACGUGGU	-1.53 ± 0.069	-0.339 ± 0.071
UCUUAGCAAUAUUACGCUUA	–	-1.22 ± 0.28
CGGAAGCAAUAUUACGGCUC	-4.04 ± 0.25	-2.51 ± 0.24
CAUGAGCAAUAUUACGUACU	-3.25 ± 0.18	-2.59 ± 0.18
CCUGAGCAAUAUUACGCCAA	-2.85 ± 0.44	–
CACGAGCAAUAUUACGUGGC	-4.09 ± 0.37	-2.13 ± 0.21
CCGUAGCAAUAUUACGAGUC	-2.86 ± 0.23	–
CACCAGCAAUAUUACGCCAA	-2.95 ± 0.28	-3.23 ± 0.3
GCGCAGCAAUAUUACGCGGC	–	-3.69 ± 0.37
GAACAGCAAUAUUACGGAUC	-0.794 ± 0.06	-0.441 ± 0.08
